Positions count from the first letter of the chain named.

Sequences and labels used below:
B1: MTK-27 (antibody, human IgG1, V domains shown)
VH: EVQLQQSGTELVRPGASVKLSCTASGFNIKDDYMHWVQQRPEQGLEWIGWIDPENGNTEYASKFQGKATITADASSNTAYLQLSSLTSEDTAVYYCSTLFSNYFDYWGQGTTLTVSS
VL: DIVMTQSQKFMSTSVGDRVSITCKASQNVRTSVAWYQQKPGQSPKALIYLASNRHTGVPDRFTGSGSGTDFTLTISNVRSEDLADYFCLQHWNYPYTFGGGTKLEIK
B2: MTK-30 (antibody, human IgG1, V domains shown)
VH: QVQLQQPGTELVRPGASVKLSCKASGYTFTSYWMHWVKQRPGQGLEWIGNLNPNNGGTYYNEKFKSKATLTVDKSSSTAYMQLSSLTSEDSAVYYCARQILLYFDYWGQGTTLTVSS
VL: DVLMTQTPLSLPVSLGDQASISCRSSQSIVHSNGDTYLEWYLQKPGQSPKLLIYKVSNRFSGVPDRFSGSGSGTDFTLKISRVEAEDLGVYYCFQGSHVPWTFGGGTKLEIK
B3: MTK-35 (antibody, human IgG1, V domains shown)
VH: QVLLQQSGPELVKPGASVQLSCKASDYTFTSYDIHWVKQRPGQGLEWIGWIYPRDGYTKYNEIFKGKATLTVDTSSTTAYMELHSLTSEDSAVYFCARAYYTNWYYFDYWGQGTTLTVSS
VL: EIVLTQSPTTMAASPGEKITITCRASSSISSHYLHWYQQKPGFSPKLLIYRTSNLASGVPARFSGSGSGTSYSLTIGTMEAEDVATYYCQQGSTIPLTFGAGTKLVLK
B4: MTK-36 (antibody, human IgG1, V domains shown)
VH: QVTLKESGPGILQPSQTLSLTCSFSGFSLSTFGMGVGWIRQPSGKGLEWLAHIWWYDDKYYEPALKSRLTISKDSSKNQVFLKIANVDTADTATYYCARIYYGTSYRYFDVWGTGTTVTVSS
VL: QIVLSQSPAILSAFPGEKVTMTCRATSSVRYMHWYQQKPGSSPKPWIYATYNLTSGVPARFSGSGSGTSYSLTISRVEAEDAATYYCHQWSSNPYTFGGGTKLEIK
B5: MTK-26 (antibody, human IgG1, V domains shown)
VH: AVQFQESGPGLVKLSQSLSLTCSVTGYSITSGYYWDWIRQFPGNKLEWMGYISYDGSNNYNPSLKNRISITRDTSKNQFFLKLNSVTTEDTATYYCAREGGYYRSMDYWGQGTSVTVSS
VL: QIVLTQSPAIMSASPGEKVTIACSASSSVSFMHWFQQKPGTSPRLWIYSTSNLASGVPARFSGSGSGTSYSLTISRMEAEDAATYYCQQRSSYPFTFGSGTKLEIK
B6: MTK-19 (antibody, human IgG1, V domains shown)
VH: EVQLQQSGPELVKPGASVKISCKTSGYTFTEYTMHWVKQSHGKSLEWLGGFNPNNVITSYNQRFQGRATLTVDKSSSTAYMELRSLTSDDSAVYYCTRGDLLWSLLLPGNYFDYWGQGTTLTVSS
VL: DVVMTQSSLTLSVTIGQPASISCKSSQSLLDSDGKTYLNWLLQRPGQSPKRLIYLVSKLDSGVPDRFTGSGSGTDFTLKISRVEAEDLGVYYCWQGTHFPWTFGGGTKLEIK
B7: MTK-33 (antibody, human IgG1, V domains shown)
VH: QVQLQQPGPELVRPGTSVKLSCKASGYTFTSYWMHWIKQRPGQGLEWIGVIDPSDNYINYNQKFKGKATLTVDTSSSTAYLQLSSLTSEDSAVYYCAREAGTRGYFDYWGQGTTLTVSS
VL: SIVMTQTPKFLLVSAGDRVIITCKASQSVSNTVAWYQQKPGQSPKLLIYYASNRYTGVPDRFTGSGYGTDFTFTISTVQAEDLAVYFCQQDYRSPFTFGSGTQLEMK
B8: MTK-01 (antibody, human IgG1, V domains shown)
VH: QIQLVQSGPELKKPGETVKISCKASGYTFTNYGMNWVKQAPGKGLKCMGWINTYTGEPTYADDFKGRFAFSLETSATTAYLQINNLKNEDTATYFCARRDRYTWFAYWGQGTLVTVSA
VL: B4 VL with F14S, T26S, R30S, Y51S, T54A, H88Q, Y95P
B9: MTK-29 (antibody, human IgG1, V domains shown)
VH: QIQLVQSGPELKKPGETVKISCKSSGFTFTTYGMSWVKQAPGKGLKWMGWINTYSGVPTYTDDFKGRFAFSLETSASTASLQINNLKNEDTATYFCARYTNYGYFDYWGQGTTLTVSS
VL: B4 VL with F14S, R30G, Y51S, T54A, D81H, H88Q, S91G, Y95F, G99S
B10: MTK-05 (antibody, human IgG1, V domains shown)
VH: QVQLQQSGAELVQPGTSVRLSCKTSGYTFTSYWIQWVKQRPGQGLGWIGEIFPGTGTTYYNEKFKGKATLTIDTSSSTAYMQLSSLTSEDSAVYFCARDGAYFDVWGAGTTVTVSS
VL: DIQMTQSPASLSASVGETVTFTCRASENIFSYLAWYQQKQGKSPQLLVYNAKTLAEGVPSRFSGSGSGTHFSLKINSLQPEDFGSYYCLHHYGTPLTFGAGTKLELK

The target of the first assay is T1, Recombinant human MerTK human Fc Chimera protein (R&D systems, Cat #391-MR-100) (human, UniProt Q12866 26-499, limits assumed).
T1 construct: Bought; also called recombinant human MerTK protein; MerTK-Fc
T1 sequence: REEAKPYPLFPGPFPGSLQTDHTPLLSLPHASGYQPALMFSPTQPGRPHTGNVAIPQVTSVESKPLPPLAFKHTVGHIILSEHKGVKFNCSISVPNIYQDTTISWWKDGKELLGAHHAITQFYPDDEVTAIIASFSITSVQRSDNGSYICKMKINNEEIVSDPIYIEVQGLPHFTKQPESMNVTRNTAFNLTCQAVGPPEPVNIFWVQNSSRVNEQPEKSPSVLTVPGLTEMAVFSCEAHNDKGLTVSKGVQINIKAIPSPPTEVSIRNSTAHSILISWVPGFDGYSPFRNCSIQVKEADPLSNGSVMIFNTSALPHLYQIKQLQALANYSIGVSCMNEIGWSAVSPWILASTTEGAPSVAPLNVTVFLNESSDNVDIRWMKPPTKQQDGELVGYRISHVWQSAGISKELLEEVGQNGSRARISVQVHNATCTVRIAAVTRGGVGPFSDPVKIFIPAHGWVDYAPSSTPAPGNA
Description: competition ELISA, His-Gas6 on captured MerTK-Fc. As to the method:
Rabbit anti-human IgG polyclonal antibody (Jackson ImmunoResearch, Cat #309-005-008) was captured to a high-protein binding plate at 2 μg/ml 4° C. overnight. After washing with 0.05% Tween20 in PBS three times, 5% BSA in PBS was added for 1 hour. Recombinant human MerTK human Fc Chimera protein (R&D systems, Cat #391-MR-100) was added at 2 μg/ml for 1 hour and the plates were then washed. Anti-MerTK antibodies were titrated to final concentration range of between 66.6 nM to 4 pM and then 40 μl of serially diluted antibody and 40 μl of His tag-conjugated recombinant Gas6 protein (R&D systems, Cat #885-GSB-050) at 3 μg/ml or His tag-conjugated recombinant ProS protein (R&D systems, Cat #9489-PS-100) at 20 μg/ml. After a further incubation for 1 hour, plates were washed and incubated for 1 hour with HRP-conjugated anti-6×His tag antibody (Abcam, Cat #ab1187). Plates were then washed and an HRP substrate (TMB) was used to develop the plates. After sufficient color change was observed, the reaction was stopped by adding 50 μl 2N H₂SO₄ and the OD was measured using a spectrophotometer (BioTek).
From these experiments, IC50 values [nM] were determined using OD450 values obtained from the dose-response curves analyzed with Prism software. Table 14 and Table 15 show IC50 values determined for anti-MerTK antibody blocking of Gas6 ligand binding and ProS ligand binding to MerTK. […] Dashes indicate lack of significant blocking; “n.a.” indicates data not available.
Regarding B1, the IC50 worked out at 1.42 nM.

As to B2, the IC50 is 1.26 nM.

With B3, the IC50 was 0.31 nM.

With B4, the IC50 came to 0.29 nM.

Regarding B5, the IC50 stood at 2.93 nM.

For the next assay, the target named is T1, Recombinant human MerTK human Fc …. Description: competition ELISA, His-ProS on captured MerTK-Fc. The procedure, abridged:
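MerTK-Fc (2 μg/ml) captured on plate-bound anti-human IgG was exposed to anti-MerTK antibodies (66.6 nM-4 pM final) together with His-Gas6 at 3 μg/ml or His-ProS at 20 μg/ml for 1 h. Bound ligand was detected with HRP-anti-His and TMB. IC50 (nM) was derived from OD450 dose-response curves.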
With B1, the IC50 was determined as 2.54 nM.

Turning to B2, the IC50 stood at 1.57 nM.

Regarding B6, the IC50 was 11.3 nM.

As for B7, the IC50 stood at 0.601 nM.

In the case of B3, the IC50 amounted to 0.924 nM.

Turning to B8, the IC50 stood at 2.85 nM.

Turning to B9, the half-maximal inhibitory concentration (IC50) stood at 2.66 nM.

Take B4: the IC50 is 1.4 nM.

For the molecule B5, the IC50 came out at 1.2 nM.

B10: the half-maximal inhibitory concentration (IC50) came out at 6.51 nM.

The next assay has as its target T2, human MerTK endogenously expressed on cells (SK-MEL-5 cells; human macrophages) (human, UniProt Q12866 21-999).
T2 sequence: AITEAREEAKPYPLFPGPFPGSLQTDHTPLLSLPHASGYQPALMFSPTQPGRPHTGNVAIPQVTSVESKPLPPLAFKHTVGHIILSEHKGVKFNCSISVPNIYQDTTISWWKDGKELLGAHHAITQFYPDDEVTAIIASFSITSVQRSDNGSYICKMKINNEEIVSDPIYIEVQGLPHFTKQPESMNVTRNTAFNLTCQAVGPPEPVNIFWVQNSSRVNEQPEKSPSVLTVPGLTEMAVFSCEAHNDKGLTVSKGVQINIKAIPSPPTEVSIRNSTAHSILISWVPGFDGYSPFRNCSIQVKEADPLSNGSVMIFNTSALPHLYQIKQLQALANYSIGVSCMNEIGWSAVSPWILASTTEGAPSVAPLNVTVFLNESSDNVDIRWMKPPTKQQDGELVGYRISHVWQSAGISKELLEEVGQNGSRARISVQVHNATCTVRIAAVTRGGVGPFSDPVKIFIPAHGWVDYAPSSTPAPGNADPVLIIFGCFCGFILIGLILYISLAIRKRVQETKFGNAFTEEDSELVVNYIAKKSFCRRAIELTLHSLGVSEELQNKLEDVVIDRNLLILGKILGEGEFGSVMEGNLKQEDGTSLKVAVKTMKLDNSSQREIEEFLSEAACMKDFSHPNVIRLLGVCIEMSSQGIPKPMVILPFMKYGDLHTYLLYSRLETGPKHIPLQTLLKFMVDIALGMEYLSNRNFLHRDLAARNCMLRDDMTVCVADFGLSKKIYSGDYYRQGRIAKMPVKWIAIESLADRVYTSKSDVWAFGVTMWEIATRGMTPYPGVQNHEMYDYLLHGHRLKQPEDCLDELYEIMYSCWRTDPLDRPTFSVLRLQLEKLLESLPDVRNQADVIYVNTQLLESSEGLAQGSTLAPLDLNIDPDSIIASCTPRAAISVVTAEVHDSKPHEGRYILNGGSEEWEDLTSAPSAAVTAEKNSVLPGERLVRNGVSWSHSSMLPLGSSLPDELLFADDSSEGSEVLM
Description: cell-based or functional assay.
As for B6, the “Gas6-mediated pAKT activity, average IC50, human M2c macrophages” value (shortened to “Gas6-mediated pAKT activity”) was found to be 0.902 nM.

Turning to B7, the “Gas6-mediated pAKT activity” value stood at 4.28 nM.

On to B8, for which the “Gas6-mediated pAKT activity” value amounted to 1.28 nM.

In the case of B9, the “Gas6-mediated pAKT activity” value stood at 5.37 nM.

As for B10, the “Gas6-mediated pAKT activity” value stood at 0.246 nM.

A further assay addresses T2, human MerTK endogenously expressed on …. Description: flow cytometry on SK-MEL-5 cells, Prism fit. The protocol:
To determine whether recombinant anti-human MerTK antibodies of the present disclosure bind to human MerTK endogenously expressed on SK-MEL-5 cells and to CHO cells overexpressing mouse MerTK (CHO-muMerTK OE cells), the following experiments were performed. SK-MEL-5 cells and CHO-muMerTK OE cells were plated at 40,000 cells/well. Anti-MerTK antibodies were titrated to a final concentration range of between 66.6 nM to 4 pM and then added to the cells. After 30 min on ice, cells were washed and then stained with APC-conjugated mouse anti-human Kappa antibody (Southern Biotech Cat #9230-11, Birmingham, Ala.) and a viability die (Life Technologies) in the presence of Fc block solution on ice for 30 minutes, and then washed twice with cold FACS buffer (2% FBS in PBS). Cells were fixed with 4% paraformaldehyde in PBS. Stained cells were acquired on a BD FACS Canto II cytometer and the mean fluorescence intensity (MFI) was calculated with FlowJo software and K value was calculated with Prism software. […] A lower Kd value reflects higher binding of antibody to cells.
Turning to B1, the Kd came out at 2.55 nM.

For B2, the Kd came to 0.47 nM.

As to B6, the dissociation constant (Kd) is 3.07 nM.

For B7, the Kd came to 0.93 nM.

In turn, B3 came in with a Kd of 1.29 nM.

Consider B8, for which the Kd was 0.049 nM.

With B9, the Kd turned out to be 0.14 nM.

In turn, B4 had a Kd of 1.42 nM.

Molecule B5 had a Kd of 1.38 nM.

Values taken from patent US20210261685A1 (Alector, published 2021).
